The values below come from article doi:10.1101/2020.09.02.280610.

This experiment has as its target recombinant soluble canine IL-10 receptor alpha chain (extra-cytoplasmic domain of canine IL-10R1) (canine). Description: SPR. On the technique in general: Surface plasmon resonance follows binding to a sensor surface in real time, without labels.

Regarding “recombinant canine IL-10 (from UniProt P48411 20-181) (ligand)”, the EC80 (binding equilibrium constant) was determined as 51.4 nM, the RU at 31.2 ng/mL came out at 211 RU and the RU at 125 ng/mL (plateau) came out at 1720 RU.
